Source: PMC3491057, “Proliferating Cell Nuclear Antigen (PCNA) Interactions in Solution Studied by NMR” (PLoS ONE, 2012)
Entries after “also recorded” stand apart in the source; their conditions may differ.

What was measured:
[1] = system: PCNA C-terminal fragment 137–261; details: yeast two-hybrid; cited from earlier work
Source text: MCL-1 has a sequence that meets this minimal PIP-box motif (^221 […] ^228) at the end of the BH3 region in its globular C-terminal domain.

PCNA [2] = details: co-immunoprecipitation, lysates from co-transfected human embryonic cells and native HeLa cells; cited from earlier work
Source text: MCL-1 is a member of the pro-survival B-cell lymphoma-leukemia-2 (Bcl-2) family that preserves mitochondrial integrity during apoptosis. It consists of an intrinsically disordered, 170 residue long N-terminal region and a C-terminal globular domain with three Bcl-2 homology (BH) regions. […] MCL-1 has a sequence that meets this minimal PIP-box motif (^221 […] ^228) at the end of the BH3 region in its globular C-terminal domain.

human PCNA = target: T1, human PCNA (Homo sapiens, UniProt P12004); assay: NMR (TROSY) examination of the interaction of PCNA with MCL-1 construct; type: binding; details: 35°C; for binding to PCNA (chemical shift or intensity changes): 50 µM 2H-15N PCNA, 220 µM MCL-1 construct (4.4 equivalents), 10 mM Tris pH 7.4, 250 mM NaCl, 1 mM EDTA, 0.5 mM DTT, 800 MHz
T1 construct: His6 tag with PreScission protease cleavage site (N, cleaved yes); made in house; host or cells: E. coli
Experimental: The human MCL-1 ΔN151−ΔC7 construct cloned in vector pET32a was expressed and purified as described. Briefly, the protein was expressed in E. coli BL21(DE3) cells with a histidine-tag and a Tev protease site at the N-terminus, and was purified by two chromatography steps: immobilized nickel ion affinity and size exclusion.
Unless indicated otherwise, the NMR spectra were recorded on a Bruker AV600 spectrometer equipped with a cryogenically-cooled triple resonance z-gradient probe at 35°C on PCNA samples with or without ligands in PBS pH 7.0. The spectra in Figures S2, S4, S7 and S8 were recorded on a Bruker AV800 spectrometer with a cryogenically-cooled triple resonance z-gradient probe on samples and buffers described in the corresponding legends. TROSY-based 3D HNCO, HN(CA)CO, HNCACB, HN(CO)CACB, and HNCA [21] were recorded for resonance assignment. Spectra were processed with TopSpin (Bruker) or with NMRPipe and analyzed using NMRView. Peak intensities were evaluated by the peak heights measured using CCPNMR [24].
We have monitored the binding of MCL-1 to PCNA by NMR using an MCL-1 construct that lacks most of the disordered N-terminal region but retains the C-terminal domain correctly folded. […] As no significant CSPs were measured, it is not possible to confirm the interaction, but a lower limit for the dissociation constant of the putative complex can be estimated. Assuming an equimolar complex, and that we should be able to detect significant changes when at least 20% of PCNA is bound to MCL-1 [42], a lower limit of the dissociation constant can be calculated. […]
Supplementary file pone.0048390.s007.tif: Figure S7 NMR examination of the interaction of PCNA with MCL-1. ^1H-^15N TROSY spectra of 50 µM uniformly labeled ^2H-^15N PCNA alone (black) or in the presence (red) of 220 µM of the ΔN151−ΔC7 fragment of human MCL-1 (1∶4.4 ratio on a PCNA monomer basis). The spectra were recorded in 10 mM Tris pH 7.4, 250 mM NaCl, 1 mM EDTA, 0.5 mM DTT at 800 MHz and 35°C. […]

PCNA [3] = system: PCNA; parameters: method as in PMID 20460379; details: cited from earlier work

T1 sequence (P12004 whole entry): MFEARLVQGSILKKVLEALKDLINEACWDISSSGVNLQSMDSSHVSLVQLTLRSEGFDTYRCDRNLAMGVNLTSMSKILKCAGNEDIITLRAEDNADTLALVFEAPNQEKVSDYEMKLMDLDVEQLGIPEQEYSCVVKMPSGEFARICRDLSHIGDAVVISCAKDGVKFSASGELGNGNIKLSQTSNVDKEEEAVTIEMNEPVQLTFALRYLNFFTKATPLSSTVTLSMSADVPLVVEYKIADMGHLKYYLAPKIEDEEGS

B1: MCL-1: Myeloid cell leukemia 1 protein, literature interaction with PCNA (protein)
chain: NNTSTDGSLPSTPPPAEEEEDELYRQSLEIISRYLREQATGAKDTKPMGRSGATSRKALETLRRVGDGVQRNHETAFQGMLRKLDIKNEDDVKSLSRVMIHVFSDGVTNWGRIVTLISFGAFVAKHLKTINQESCIEPLAESITDVLVRTKRDWLVKQRGWDGFVEFFHVEDLEGGIRNVLLAFAGVAGVGA
modifications: left off: His tag, N-terminal, kept
[1]
  interaction with PCNA fragment 137–261: sufficient for the interaction with MCL-1
PCNA [2]
  interaction with PCNA: interact with PCNA; also recorded: detected by co-immunoprecipitation

B2: ΔN151−ΔC7: MCL-1 residues 152–343 plus an N-terminal histidine-tag (protein)
chain: B1 chain
modifications: left off: His tag, N-terminal, kept
Human PCNA
  binding to PCNA (chemical shift or intensity changes): did not observe any indication of binding
Human PCNA; listed as Bcl-2 domain of MCL-1
  binding to PCNA (chemical shift or intensity changes): did not detect binding
Human PCNA; assuming equimolar complex and detection at ≥20% PCNA bound, 50 µM PCNA, 220 µM MCL-1 construct, read-out: dissociation constant (lower limit)
  Kd: > 840 µM

B3: Gadd45α: Growth arrest and DNA damage 45 alpha protein (protein, UniProt P24522 1-165, looked up)
Growth arrest and DNA …: MTLEEFSAGEQKTERMDKVGDALEEVLSKALSQRTITVGVYEAAKLLNVDPDNVVLCLLAADEDDDRDVALQIHFTLIQAFCCENDINILRVSNPGRLAELLLLETDAGPAASEGAEQPPDLHCVLVTNPHSSQWKDPALSQLICFCRESRYMDQWVPVINLPER
PCNA [3]
  direct interaction with PCNA in solution: extremely weak
